The target in the assay is hGle1B tagged with mCerulean3 (Cer3-hGle1B) or mVenus (Venus-hGle1B) (human) (UniProt Q53GS7). The assay is described as follows: FRET or BRET.
UniProt Q53GS7, sequence (Q53GS7 whole entry): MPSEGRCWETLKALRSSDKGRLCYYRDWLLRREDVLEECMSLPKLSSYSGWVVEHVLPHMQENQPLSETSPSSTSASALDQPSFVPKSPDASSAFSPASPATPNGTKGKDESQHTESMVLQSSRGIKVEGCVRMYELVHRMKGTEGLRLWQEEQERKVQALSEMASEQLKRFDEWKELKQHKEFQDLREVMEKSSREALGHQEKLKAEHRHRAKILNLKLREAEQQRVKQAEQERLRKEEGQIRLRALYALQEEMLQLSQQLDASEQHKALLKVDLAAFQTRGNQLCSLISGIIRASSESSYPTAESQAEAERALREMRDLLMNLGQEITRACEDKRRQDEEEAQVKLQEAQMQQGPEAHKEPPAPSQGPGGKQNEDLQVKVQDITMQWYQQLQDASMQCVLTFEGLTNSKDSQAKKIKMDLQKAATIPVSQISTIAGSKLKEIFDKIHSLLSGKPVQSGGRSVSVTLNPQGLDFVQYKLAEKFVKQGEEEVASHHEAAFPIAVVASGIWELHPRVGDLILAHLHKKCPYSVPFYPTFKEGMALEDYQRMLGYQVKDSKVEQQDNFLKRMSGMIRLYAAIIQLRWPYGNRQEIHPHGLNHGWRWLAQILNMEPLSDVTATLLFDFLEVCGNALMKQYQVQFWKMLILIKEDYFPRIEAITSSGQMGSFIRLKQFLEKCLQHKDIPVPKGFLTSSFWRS

Take mCerulean3 alone: the FRET efficiency (cytoplasm and nucleoplasm) was < 1.25%; the normalized FRET (NFRET) signal (all locations) is < 4.08.
